Eleven molecules from patent publication US20130266574A1 (Regeneron, published 2013) can be followed below.

Test [1] concerns the target T1, amino acid residues 26-148 of human ANGPTL4 fused in-line to mouse IgG2a (hANGPTL4-mFc) (human).
T1 chain: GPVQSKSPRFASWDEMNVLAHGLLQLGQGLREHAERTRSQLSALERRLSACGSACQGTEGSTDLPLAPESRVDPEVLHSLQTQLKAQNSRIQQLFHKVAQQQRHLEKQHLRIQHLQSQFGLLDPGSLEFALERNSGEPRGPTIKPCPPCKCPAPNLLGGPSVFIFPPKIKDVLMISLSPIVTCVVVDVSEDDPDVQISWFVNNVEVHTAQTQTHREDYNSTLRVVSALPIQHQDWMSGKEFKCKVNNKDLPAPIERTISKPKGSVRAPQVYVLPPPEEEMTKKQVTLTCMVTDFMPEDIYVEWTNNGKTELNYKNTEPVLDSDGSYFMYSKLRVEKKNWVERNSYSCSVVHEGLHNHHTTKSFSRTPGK
As to the kind of experiment: cell-based or functional assay.

Test [2] deals with T2, full-length hANGPTL4 (amino acid residues 26-406 of SEQ ID NO:476) with a C-terminal hexa-histidine tag (human, UniProt Q9BY76 26-406).
T2 sequence: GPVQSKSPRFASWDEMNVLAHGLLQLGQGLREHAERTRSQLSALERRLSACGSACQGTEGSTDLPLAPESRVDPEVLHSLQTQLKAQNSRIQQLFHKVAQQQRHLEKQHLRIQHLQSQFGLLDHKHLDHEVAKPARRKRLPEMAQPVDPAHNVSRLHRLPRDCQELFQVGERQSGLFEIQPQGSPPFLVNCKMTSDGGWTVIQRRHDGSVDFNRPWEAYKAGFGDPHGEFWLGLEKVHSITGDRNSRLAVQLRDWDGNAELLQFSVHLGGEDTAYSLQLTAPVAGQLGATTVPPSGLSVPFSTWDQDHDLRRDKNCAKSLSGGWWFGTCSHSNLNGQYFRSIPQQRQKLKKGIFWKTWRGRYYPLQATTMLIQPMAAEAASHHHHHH
As to the kind of experiment: cell-based or functional assay.

The target of test [3] is T1, amino acid residues 26-148 of human …. As to the kind of experiment: SPR (Biacore T100), hANGPTL4-mFc captured by anti-mouse IgG, antibody injected, 25° C. The protocol:
(§1) Antigen-antibody binding and dissociation were monitored in real time at 25° C. and 37° C. Kinetic analysis was performed to calculate KD and half-life of antigen/antibody complex dissociation.

For test [4] the target is unchanged. As to the kind of experiment: SPR (Biacore T100), hANGPTL4-mFc captured by anti-mouse IgG, antibody injected, 37° C. The protocol:
as §1

B1: H1H292P (antibody, V domains shown)
VH: EVQLVESGGGLVQPGGSLRLSCVASGFTFSSYDMHWVRQLPGKGLEWVSAIGVAGDTYYPASVKGRFTISRENAKNSLYLQMNSLRAGDTAVYYCARGDSGNYYDGDYFDFWGQGTLVTVSS
VL: DIQMTQSPSTLSASVGDRVTITCRASQSINRWLAWYQQKPGKAPKVLIYKASNLESGVPSRFSGSGSGTEFTLTISSLQPDDFATYYCQQYDSYFRTFGQGTKVEIK
notes: Fully human antibody, H1H prefix (human IgG1)
Take B1: in test [1], the “% Inhibition of hANGPTL4 Activity (LPL lipase test), hANGPTL4-mFc (2 nM)” value (“% Inhibition of hANGPTL4 Activity … (2 nM)” for short) was 20%. The “% Inhibition of hANGPTL4 Activity (LPL lipase test), hANGPTL4-His (10 nM)” value (from here on “% Inhibition of hANGPTL4 Activity … (10 nM)”) in test [2] was found to be 53%. In addition, in test [3], the Kd was 0.136 nM and the t1/2 was found to be 1.87 h. In test [4], this molecule displayed a Kd of 0.167 nM and a t1/2 of 1.47 h.

B2: H1H291P (antibody, V domains shown)
VH: EVQLVESGGGLVQPGGSLRLSCAASGFTFSTYDMHWVRQGLGKGLEWVSAIGSAGDTYYPGSVKGRFTISRDNAKSSLFLHMNSLRAGDTALYYCARGDSRNYFVGDYFDYWGQGTLVTVSS
VL: DIQMTQSPSTLSASIGDRVTITCRASQSISSWLAWYQQKPGKAPKVLIYKASSLEAGVPSRFSGSGSGTEFTLTISSLQPDDFASYYCQQYSSYSRTFGQGTKVEIK
notes: as for B1
Consider B2, for which, in test [3], binding was characterised by a dissociation constant (Kd) of 0.0876 nM and the t1/2 worked out at 5.05 h. Besides, in test [4], the Kd came to 0.178 nM and the t1/2 was determined as 2.03 h.

B3: H1H283P (antibody, V domains shown)
VH: EVQLVESGGGLVQPGGSLRLSCAASGFTFSSYDMHWVRQVAGKGLEWVSAIGTAGDTYYPVSVKGRFTISRENAKNSLYLHMNSLRAGDTAVYFCARGDSRNYYVGDYFDYWGQGTLVTVSS
VL: DIQMTQSPSTLSASVGDRVTITCRASQSISRWLAWYQQKPGKAPKVLIYKASNLESGVPSRFSGSGSGTEFTLTISSLQPDDFATYYCQQYNSYSRTFGQGTKVEIK
notes: as for B1
In test [3], B3 returned a Kd of 0.13 nM and a t1/2 of 1.98 h. In test [4], the Kd amounted to 1.36 nM and the t1/2 is 0.2 h.

B4: H1H285P (antibody, V domains shown)
VH: EVQLVESGGGLVQPGGSLRLSCAASGFTFSRYDMHWVRQVTGKGLEWVSGIGTAGDTYYPGSVKGRFTISRENDKNSLYLQMNSLRVGDTAVYYCARGDSKNYYVGDYFDYWGQGTLVTVSS
VL: DIQMTQSPSTLSASVGDRVTFTCRASHSIGNWLAWYQQKPGKAPKVLIYEASSLEDGVPSRFSGSGSGTEFTLTISSLQPDDFATYYCQQYDTYFRTFGQGTKVEIK
notes: as for B1
As for B4, in test [1], the “% Inhibition of hANGPTL4 Activity … (2 nM)” value is 28%. Also, in test [2], the “% Inhibition of hANGPTL4 Activity … (10 nM)” value was 47%. In test [3], this molecule displayed a Kd of 0.0925 nM and a t1/2 of 2.6 h. In test [4], this molecule came in with a Kd of 0.194 nM and a t1/2 of 1.18 h.

B5: H1H257P (antibody, V domains shown)
VH: EVQLVESGGGLVQPGGSLRLSCAASGFTFSSYDMHWVRQVAGKGLEWVSAIGTAGDTYYPVSVKGRFTISRENAKNSLYLHMNSLRAGDTAVYFCARGDSRNYYVGDYFDYWGQGTLVTVSS
VL: DIQMTQSPSTLSASVGDRVTITCRASQSISRWLAWYQQKPGKAPKVLIYQASNLESGVPSRFSGSGSGTEFTLTISSLQPDDFATYYCQQYDSYSRAFGRGTKVEIK
notes: Fully human antibody; the H1H prefix stands for human IgG1 (said outright only for H1H268P and H1H284P)
As to B5, the “% Inhibition of hANGPTL4 Activity … (2 nM)” value in test [1] is 16%. For the same molecule, in test [3], the Kd was determined as 0.201 nM and the t1/2 came to 1.52 h. For the same molecule, in test [4], the affinity, expressed as Kd, was 0.238 nM and the t1/2 worked out at 1.05 h.

B6: H1H644P (antibody, V domains shown)
VH: EVQLVESGGGLVQPGGSLRLSCAASGFTFSSYDMHWVRQVAGKGLEWVSAIGTAGDTYYPVSVKGRFTISRENAKNSLYLHMNSLRAGDTAVYYCARGDSRNYYVGDYFDYWGQGTLVTVSS
VL: DIQMTQSPSTLSASVGDRVTITCRASQSISRWLAWYQQKPGKAPKVLIYKASNLESGVPSRFSGSGSGTEFTLTISSLQPDDFATYYCQQYNTYSRTFGQGTKVEIK
notes: as for B1
In the case of B6, in test [3], binding was characterised by a dissociation constant (Kd) of 0.111 nM and the t1/2 worked out at 2.4 h. In test [4], this molecule displayed a Kd of 3 nM and a t1/2 of 0.1 h.

B7: H1H638P (antibody, V domains shown)
VH: EVQLVESGGGLVQPGGSLRLSCVASGFTFSSYDMHWVRQVAGKGLEWVAAIGTAGDTYYPVSVKGRFTISRENAKNSLSLHMNSLRAGDTAVYYCARGDSRNYYVGDYFDYWGQGTLVTVSS
VL: DIQMTQSPSTLSASVGDRVTITCRASQSISRWLAWYQQKPGKAPKVLIYKASSLKSGVPSRFSGSGSGTEFTLTISSLQSDDFATYYCQQYNSYSRTFGQGTKVEIK
notes: as for B1
Turning to B7, the figures for the Kd in test [3] and in test [4] were 0.193 nM and 0.299 nM, respectively. The values for the t1/2 in test [3] and in test [4] were 1.42 h and 0.8 h, respectively.

B8: H1H295P (antibody, V domains shown)
VH: EVQLVESGGGLVQPGGSLRLSCAASGFTFSTYDMHWVRQAPGKGLEWVSAIGSAGDTYYPGSVKGRFTISRDNAKSSLFLQMNSLRAGDTALYYCARGDSRNYFVGDYFDYWGQGTLVTVSS
VL: DIQMTQSPSTLSASVGDRVTITCRASQSIGTWLAWYQQKPGKAPKILIYKASSLEGGVPSRFSGSGSGTEFTLTISSLQPDDFANYYCQQYNSFYRTFGQGTKVEIK
notes: as for B1
On to B8, for which, in test [3], the Kd was 0.0307 nM and the t1/2 was 14.6 h. In test [4], this molecule returned a Kd of 2.62 nM and a t1/2 of 0.167 h.

B9: H1H624P (antibody, V domains shown)
VH: EVQLVESGGGLVQPGGSLRLSCAASEFIFSSYAMNWVRQAPGKGLEWVSVISGSGDSKYYADSVKGRFTISRDNSKNTLYLQMNSLRVEDTAVYYCAKDGKDRYGFYYNFYGMDVWGQGTTVTVS
VL: DIQMTQSPSFLSASVGDRVTITCWASQGISSYLAWYQQKPGKAPKILIYAASTLQSGVPSRFSASGSGTEFTLTISSLQPEDFATYHCQQLNSYPFTFGPGTKVDIK
notes: as for B1
With B9, the “% Inhibition of hANGPTL4 Activity … (2 nM)” value in test [1] was 62%. The “% Inhibition of hANGPTL4 Activity … (10 nM)” value in test [2] was 48%. In test [3], this molecule displayed a Kd of 1.19 nM and a t1/2 of 0.117 h. In test [4], binding was put at a Kd of 3.71 nM and the t1/2 was found to be 0.05 h.

B10: H1H653P (antibody, V domains shown)
VH: QVQLVESGGGVVQPGRSLRLSCVASGFTFSSYGMHWVRQAPGKGLEWMAVIWYDGSNKYFADSVKDRFTISRDNSKNTLYLQMNTLRPDDTAVYYCVKADAPLLIYGVDVWGQGTTVTVS
VL: DIQMTQSPSSLSASVGDRVTITCRASQGIRNDLGWYQEKPGKAPKRLIYFASSLQSGVPSRFSGSGSGTEFTLTISSLQPEDFATYYCLQHNSYPYTFGQGTKLEIK
notes: as for B1
For B10, the “% Inhibition of hANGPTL4 Activity … (2 nM)” value in test [1] was 55%. Further, the “% Inhibition of hANGPTL4 Activity … (10 nM)” value in test [2] amounted to 48%. Moreover, in test [3], the Kd came to 0.411 nM and the t1/2 stood at 0.717 h. In test [4], this molecule returned a Kd of 2.13 nM and a t1/2 of 0.1 h.

B11: H1H236N2 (antibody, V domains shown)
VH: EVQLVESGGGLVQPGRSLRLSCAASGFTFDDYAMHWVRQAPGKGLEWVSGISWNSGSIVYADSVKGRFTISRDNAKNSLYLQMNSLISEDTALYYCAKDESSSSGNWFDPWGQGTLVTVSS
VL: EVVMTQSPATLSVSPGERATLSCRASQSVSSNLAWYQQKPGQAPRLLIYGASTRATGIPARFSGSGSGTEFTLTISSLQSEDFAVYYCQEYNNWITFGQGTRLEIK
B11: the “% Inhibition of hANGPTL4 Activity … (2 nM)” value in test [1] was determined as 13%. In test [2], the “% Inhibition of hANGPTL4 Activity … (10 nM)” value was found to be 19%.
